From publication PMC3711430

Experiments:
[1] = target: Xenopus FANCI (Xenopus laevis (endogenous in egg extracts)); assay: co-depletion by immunodepletion; DNA-free Xenopus S-phase egg extracts; FANCD2 or FANCI antibody coupled to Sepharose 4B beads, 60 min on ice, one to two rounds; depleted extracts analysed by immunoblot
[2] = target: Xenopus FANCD2 (Xenopus laevis (endogenous in egg extracts)); assay: as above

Substance	percent co-depleted [1]	percent co-depleted [2]
Xenopus FANCD2 (natural protein)	80%	–
Xenopus FANCI (natural protein)	–	80%
